Source: patent US6645504B1, “Bystander suppression of type I diabetes by oral administration of glucagon” (AutoImmune Inc., priority 1987, dated 2003)

Legend:
[1] = tested on: Cells, cytokines and activation markers in rat brain; assay: Immunohistology of cells, cytokines and activation markers in sections of rat brain; type: in vivo, Lewis rats; parameters: key to IL-4 / TGF-β / PGE: −: absence of labelling; +/−: <10 cells/section or trace labelling; +: few small foci; 2+: multiple foci; 3+: multiple large perivascular collections and diffuse submeningeal staining; settings: brain sections at day 14 (peak of disease), n = 3/group
Description: The effect of oral administration of MBP in rats induced for EAE was analyzed in terms of the cells and factors present in the brains of fed and control rats. Lewis rats were fed MBP five times then immunized with MBP/CFA and their brains were examined immunohistologically at day 14 (peak of disease) and compared to brains from immunized control-fed animals harvested at the same time, and to brains of naive animals. Cryostat sections of cortex and cerebellum were fixed in paraformaldehyde-lysine-periodate for determination of leukocytes and activation antigens, or in acetone for the labelling of cytokines, and stained by a peroxidase-antiperoxidase method (Hancock, W. W., et al., J. Immunol. 138:164, 1987). Results of cytokine and endothelial labelling in 20 consecutive fields were judged as (−) absence of labelling, (+/−) <10 cells/section or trace labelling, (+) few small foci, (2+) multiple foci, and (3+) multiple large perivascular collections and diffuse submeningeal staining.

EAE [2] = assay: Adoptive transfer of disease suppression; type: in vivo, Lewis rats; settings: naive recipients immunized with MBP/CFA and given OVA subcutaneously; FIG. 9
Description: Adoptive Transfer Of Disease Suppression. In order to monitor the adoptive transfer of disease suppression occurring during Bystander Suppression donor rats were fed either 1 mg MBP, OVA, or KLH, five times at 2 day intervals and killed 7-14 days after the final feeding. Spleen cells were harvested, and incubated in vitro with the homologous antigen (50 μg/ml) in proliferation medium, for 72 hours. Cells were injected intraperitoneally: 10^8 cells for whole spleen populations or 5-6×10^7 cells for CD8− or CD4-depleted populations. Recipient animals were irradiated (250 rad) before adoptive transfer, immunized with MBP/CFA 6 hours after adoptive transfer, and challenged 8 hours later with 50 μg OVA.

[3] = tested on: DTH responses to MBP or OVA; assay: Delayed type hypersensitivity (DTH) testing, Example 2; type: in vivo, Lewis rats; settings: fed antigen, then immunized with MBP/CFA plus OVA; FIG. 7
Description: Delayed Type Hypersensitivity (DTH) Testing. DTH was tested by injecting 50 μg of MBP or OVA in PBS, subcutaneously into the ear. MBP was injected in the left ear and OVA in the right ear in the same animal. Thickness, in units of 0.01 inch, was measured in a blinded fashion, before and 48 hours after challenge, using micrometer calipers (Mitutoyo, Utsunomia, Japan). Change in ear thickness before and after challenge was recorded for each animal, and results were expressed as the mean for each experimental group ± SEM; each group consisted of five animals.

DTH responses to MBP = assay: Delayed type hypersensitivity (DTH) testing, Example 1; type: in vivo, Lewis rats; settings: orally tolerized animals injected 5 times with 50 μl control serum; 48 hours after MBP challenge
Description: Delayed Type Hypersensitivity (DTH) Testing. DTH was tested by injecting 25 μg of MBP in PBS subcutaneously in the ear. Thickness was measured before and 48 hours after challenge, by a blinded observer, using micrometer calipers (Mitutoyo, Japan). Change in ear thickness pre- and post-challenge was recorded for each animal and the result expressed as the mean for each experimental group ±SEM.
Delayed-type hypersensitivity (DTH) responses correlate with the clinical course of EAE and serve as a measure of in vivo cellular immunity to MBP (Brod, S. A. et al. Ann. Neurol. 29:615-622, 1991; Khoury, S. J. et al. Cell. Immunol. 131:302-310, 1990). DTH responses were tested in the same groups described in FIG. 4 by injecting 25 μg of MBP in PBS subcutaneously in the ear. Thickness was measured before and 48 hours after challenge. The change in ear thickness pre- and post-challenge was recorded for each animal and the results expressed as the mean for each experimental group ± SEM.

EAE [4] = assay: EAE induced by guinea pig MBP 71-90, feeding of MBP peptides; type: in vivo, Lewis rats; settings: fed; FIG. 14
Description: The effects of feeding various peptides to Lewis rats induced for EAE by guinea pig MBP residue nos. 71-90 (the major immunodominant epitope of guinea pig MBP as shown in Example 3 above) were also studied.
EAE was induced by immunizing with 0.25 mg of guinea pig MBP amino acid residue nos 71-90 in Complete Freund's Adjuvant and the effect of feeding various guinea pig MBP peptides on EAE was examined.

MBP line = assay: Transwell culture suppression of MBP T cell line; type: cell-based, Lewis rats
Text: Transwell Cultures. A dual chamber transwell culture system (Costar, Cambridge, Mass.), which is 24.5 mm in diameter and consists of two compartments separated by a semi-permeable polycarbonate membrane, with a pore size of 0.4 μm, was used. The two chambers are 1 mm apart, allowing cells to be coin-cubated in close proximity without direct cell-to-cell contact. To measure in vitro suppression of proliferative responses in transwell cultures, 5×10^4 MBP- or OVA-specific line cells, raised and maintained as previously described (Ben-Nun, A. et al., Eur. J. Immunol. 11:195, 1981), were cultured with 10^6 irradiated (2,500 rad) thymocytes, in 600 μl of proliferation media in the lower well. Spleen cells from orally tolerized rats or controls (fed BSA) were added to the upper well (5×10^5 cells in 200 μl). Spleen cells were removed 7-14 days after the last feeding, and a single cell suspension was prepared by pressing the spleens through a stainless steel mesh. MBP and OVA (50 μg/ml) were added in a volume of 20 μl. […] In some experiments, modulator cells were added in the lower well together with responder cells, and in these instances modulator cells were irradiated (1,250 rad) immediately before being placed in culture. Proliferation media consisted of RPMI 1640 (Gibco Laboratories, Grand Island, N.Y.) supplemented with […] 2-mercaptoethanol, 1% sodium pyruvate, 1% penicillin and streptomycin, 1% glutamine, 1% HEPES buffer, 1% nonessential amino acids, and 1% autologous serum. Each transwell was performed in quadruplicate. The transwells were incubated at 37° C. in a humidified 6% CO2 and 94% air atmosphere for 72 hours. After 54 hours of culture, each lower well was pulsed with 4 μCi of [^3H]thymidine and at 72 hours split and reseeded to three wells in a round-bottomed 96-well plate (Costar) for harvesting onto fiberglass filters and counting using standard liquid scintillation techniques. Percent suppression =100×(1−Δ A cpm responders cultured with modulators/Δ cpm of responders).

[5] = irradiated modulators in lower well with MBP line + MBP 50 μg/ml
[6] = modulators in upper well, MBP line + MBP in lower well

B1: MBP: Guinea pig myelin basic protein purified from brain tissue (protein, UniProt P25188 1-167, looked up)
Myelin basic protein: ASQKRPSQRHGSKYLATASTMDHARHGFLPRHRDTGILDSIGRFFGSDRAAPKRGSGKDSHHAARTTHYGSLPQKSQRSQDENPVVHFFKNIVTPRTPPPSQGKGRGLSLSRFSWGAEGQKPGFGYGGRADYKSKGFKGAHDAQGTLSKIFKLGGRDSRSGSPMARR
In the case of B1, the “IL-2R(p55), PCNA” value [1] is reported as “+/− (<10 cells/section or trace labelling)”, the IL-4 [1] is reported as “−” and the PGE [1] is reported as “−”. The TGF-β [1] was 2+, the “adoptive transfer of protection by spleen cells from fed animals” value (EAE [2]) was “adoptively transferred protection” and the “DTH responses to MBP” value [3] was “Suppressed DTH responses to MBP”. For the same molecule, the “DTH response (change in ear thickness)” value (DTH responses to MBP) was 0.5±0.3, the “down-regulation of EAE induced by guinea pig MBP 71-90” value (EAE [4]) was “equally effective in down-regulating EAE” and the “Percent Suppression” value (MBP line; [5]) was 51%. The Δ cpm (MBP line; [5]) was 18,412 ± 1,867 cpm, the “Percent Suppression” value (MBP line; [6]) was 59% and the Δ cpm (MBP line; [6]) was 15,620 ± 2,294 cpm.
